# Experiment: folding stability dG unfold (combined trypsin and chymotrypsin); higher = more stable
# Procedure: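 Folding stability of de novo designed mini-proteins (<80 aa, no Cys; designed by TrROS, TrMRF, ProteinMPNN and the joint model) was measured by cDNA display proteolysis with trypsin and chymotrypsin. Each protease was used at 11 concentrations in a threefold dilution series plus a no-protease condition. K50 was inferred by Bayesian fitting of sequencing counts, and dG unfold was derived against a sequence-predicted unfolded-state K50 (Tsuboyama et al. method). Sequences shown include variable-length N-terminal GS-type padding (SAGGSAGG...) inside a display construct carrying a PA tag. Rows were kept only if the AF2 dimer inter-PAE was >15, to exclude likely homo-oligomers.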
row,Sequence,folding stability dG unfold [kcal/mol]
1,SAAEWLKEEGLKVKDVEVTKPRENPNGKREMEYRIKVRLPNKKVEVPIRMPSDSPETALNMAHNILRELSAG [r14_726_TrROS],< -1
2,SAGGSAGGSEMKIDRIKIHDFDPDNGNYFVRIRNNGGPKHTFPVKNADELKEHLPGVKVEVIKSAGGSAGGS [r12_403_TrROS],< -1
3,SAGGSAGGSAGGSHTFEFPGRKITIHRNPNGMYPIEIETNGKPREIMIPPNDLDKLLKASAGGSAGGSAGGS [r4_346_TrROS],< -1
4,SAGGSAGGSAGGFVGTLKDYPKILKAAKEVGLKVGKIDPKNNKIYVDPSNPEKLKKAIESSAGGSAGGSAGG [r7_285_TrMRF],< -1
5,SMPYLVRVLAELPDGELLGEAEAEVLPGEELVFSDPLPVRVRAVIYDPETDEPREVEADGRVGVLVVPVESA [r9_272_TrMRF],< -1
6,SAGMPELVEFPFPIPPEFPDIPPETLAKLIAEELNEEEFSVEVKSYDPEKPIVTLTVTKDGKPVAEFTDSAG [r5_80_TrMRF],< -1
7,SAGGSAGGSVVIPESVISNMKEEEIRELIKKNPKPVLLVTENPEVRKKAEEIFKKEGYPLVVGSAGGSAGGS [r12_97_TrMRF],< -1
8,SAGIRFRPGARIEWQNPDNGKKVEIRMREIRDRIQEINGNENPEQITAEQIQEWAREHGFRPIKIEPPSAGG [r19_67_TrROS],< -1
9,SAGGPKIEVDVKHQRTPDGMYRMRVTAVVPGNGRKIKITMPMPPDDPSPMPKMAKSIAKELANDPGLKSAGG [r13_968_TrROS],< -1
10,SAGGPMVTWRIKFPGKKIEVMWNPDQMNVNIYDPDKPKEVPIPMPPGEPPTADDILDELKKDGFKIEPSAGG [r13_687_TrROS],< -1
11,SAGGSAGGSAGGPPIPIRIKLEHPDNGKKHTHEFPPGMSLKEVKNYMEKHPGYKIKDIEISAGGSAGGSAGG [r7_624_TrROS],< -1
12,SAGGSAGGSAGRLPPGMKIRIWHRRDGKPRRREFEIPPGMPSIEDAAKEHPPIESVKIERSAGGSAGGSAGG [r11_157_TrROS],< -1
13,SAGGGSIEDSNLSEEEIKEILSKLPEPVTVTVKRKEVKKVTYFENGKVKEEKIVEKEKTEVYYFPPKKSAGG [r13_632_JUSTAS],< -1
14,SAGGSAGGSTIMIPPGMPPEEAKAWARDIAREQGFPPGRDLNVEVEPQPFDGGPWYTIDIEWDSAGGSAGGS [r12_252_TrROS],< -1
15,SAGGPKIHIDRGPDYIRVKINGPDGKPIAPSTIPYEDPDNGEEEEVKIPIEELAQESGFPIEIEPYDSAGGS [r16_778_TrROS],< -1
16,SAGGSAGGSAGMSTTIEITDPNLSKEEIKKRIREELGPDVKVTSITEETPDTLKATIVKKSAGGSAGGSAGG [r11_580_JUSTAS],< -1
17,SAGGSAGGMPPDTYVTEVVTTTSNVLGGKDIFRTIVKTTKILPVIEHPAGDGFTLVPPDTPGLESAGGSAGG [r6_405_JUSTAS],< -1
18,SAGGSAGGSVYYDESEDGVFVRVEGDGAPRVFPVADPEEARYRRIPTPDGRPVRVELRPSEEGSAGGSAGGS [r12_730_TrMRF],< -1
19,SAGGSAGGSAKKIEIEPMPNGWTVRIKGNDGKKREIPIPNPNQSISDIAKRAEDNGIDDVEISAGGSAGGSA [r18_83_TrROS],< -1
20,SAGGSPVVPLPPDATATLTETVKVPRVLFDEEGNELEKLEVERTVTTTYTRLPGGEVATTTTTTTESAGGSA [r2_154_JUSTAS],< -1

row,Sequence,folding stability dG unfold [kcal/mol]
1,SAGGSAGGSAGGSNIPTDETVEKVVKIGPKPVTVTITAEPGKLLAKFPKEKKTVPISSLLSAGGSAGGSAGG [r7_37_JUSTAS],< -1
2,SAGGSAGGSAPLVENPVPLYVPEEEAVPLAEEIRKKLTKGGLKKIVFEVVPPEEAGIPPDEPLSAGGSAGGS [r12_93_JUSTAS],< -1
3,SATLRDLIKELGFPMDIEHDGDSVKITMRNPDDPNPGQEQTFEIPPPNGKPLKFKIRMRNNGIQEIEPESAG [r14_401_TrROS],< -1
4,SAGGSAGGSADPQKVKEIAEKLQEKGYTVDVDRGPDSWTIRVENPKSGGKKKHKIDDPEDVLSAGGSAGGSA [r18_278_TrROS],< -1
5,SAGGSMPIDDIKEINIQYNPNTGTVMVPFRLPNGHEIMAEQKYDPEAGWPVIPIRVNDGKPIEIPISAGGSA [r2_490_TrROS],< -1
6,SAGGSAGGSARVTVTPLPDDRVAVSVERTLYRRDADGNPLGPVRIQASVVVDSLEDAAELASAGGSAGGSAG [r3_232_TrMRF],< -1
7,SAGGSAGGSMFMVKINNGKEIPIPPEDLPPGETVEELADNIPPGMRNIEIYNWDGEEQEIPIDSAGGSAGGS [r20_161_TrROS],< -1
8,SAGSMKLLILATSYPPDGSTTTKPIFGTEEDLKAAVEALPDGEKAATIIEVSEEGLKTIKTETRPPSLGSAG [r5_970_JUSTAS],< -1
9,SAGGSEVFVLPNGAVAVVEPDPDGVRVARVPGLPGVAVRYPPATRRWVLVTVDPRKGGPRTFTLTGSAGGSA [r2_477_TrMRF],< -1
10,SAGGSAGGSSPSDTVTAELRYVLPDGTPVERTLSLTDLPSSVTPEDTLTLPGPGLRARILAVTGSAGGSAGG [r6_561_JUSTAS],< -1
11,SAGGSAGGSANPMPVRFQIEWKNPKDGKKQKIPITGTIPDGNGKKHSINELLKNLPGFKIKPSAGGSAGGSA [r18_267_TrROS],< -1
12,SAGGGMNEPVPKVTVTTTSVSVEPPPDLPGIAKVYTPTVITTDDEAVAEAIAEEIAAQPDVEYEDTGASAGG [r13_606_JUSTAS],< -1
13,SAGGSAGGSAGGKITEVDTSNNMVEITLKHPGGKRERPIDPGKTMAQILDELKENPDLVISAGGSAGGSAGG [r7_373_TrROS],< -1
14,SAGGSTYTVTRTEELPDGTVRAELTVTLDGAPVPATGTTETAPGGRRRVTVTFPSDPSLSLTTPEESAGGSA [r2_376_JUSTAS],< -1
15,SAGGDDFRVERFHPGEPREPREIDGDADDLLEELPPNDSYVHIEFKDDGGKKRIQMDTPEDLKNFIRDSAGG [r13_299_TrROS],< -1
16,SAGGSAGGSAGGSGMMVPTTVTITVPAPDGTPVRTVTITTTSPTATLEEIKARVAPFLASAGGSAGGSAGGS [r4_375_JUSTAS],< -1
17,SAGGSAGGSAGGGYRLVTTTERRTLVYREYDPTTDRFRPVKPVPTTIETTLLAPEDELLSAGGSAGGSAGGS [r10_610_JUSTAS],< -1
18,SAGGSAGGSALKINKLLKEGYEVEVTPPDGKKYVLKKGDSAKKPKEKFNLPENAKIKIKPLSAGGSAGGSAG [r3_216_TrMRF],< -1
19,SAGPPNDVKPIEIPFKMENGSNFRAEIWRDPGDGKVFVPIEYPNPWHRKRMQNWARELAEEHGIDRVEPSAG [r5_99_TrROS],< -1
20,SAGGSAPKRRIEIYPNPNGMYRIKVSNPDGKKREHTIDGPGMPLEQLANKLNIPPGFKIDEIEPYPSAGGSA [r15_167_TrROS],< -1

row,Sequence,folding stability dG unfold [kcal/mol]
1,EPNYLVQIEIEPRMYQKDEDGKPLKPQPMKQPFFGPADDPEQVKDNLRDNFGPEVEIDEVMPLEDINEGQFS [r1_493_TrROS],< -1
2,SAGGSAGGSAGGDNIMIKIRNPGKPRTFMIKDPEQLKNMSLKELADELVDKHGWPVEIYPSAGGSAGGSAGG [r7_259_TrROS],< -1
3,SAGGPMPPGQPVNIHIEIENPNGNERTIPVPGPVGDPDWFKEIAEKLKEEGWKIKKIHPGNGVIEIKSAGGS [r8_497_TrROS],< -1
4,SAGMPVTTVTLYTTDPATGTPTATPGPISDVLALLKREGLPVEREEYDPSPQTHTVYSKGPGKDYIVAGSAG [r5_521_JUSTAS],< -1
5,SAGGSAGGSAPGQKFPIKEVYWNDGRLAIKVEDNGEEQIIPVGAKIEDDDDGEIKIKLLPPPSAGGSAGGSA [r18_468_TrROS],< -1
6,SAGKPRPIINIEWQPNPDGQPNLTISVMRRDPKNGDMKPREYTIDPGADPEDLIKKALDEGADYVSIHPSAG [r5_37_TrROS],< -1
7,SAGGSAGGSAGVIPFDSPEDAERAIEEAFRNGDPVTIHRRNPDGKHQTIPFKIKLPKNDPSAGGSAGGSAGG [r17_462_TrROS],< -1
8,SAGGSAMKFYIKYDPKKEKTILILPENNPDLEGNDGSKVIKVENEEELIKLIEEAKKKGIKKIEIKSAGGSA [r15_1004_TrMRF],< -1
9,SAGGASVPVEPRLDASGRERVRATLEIRPTLPNGTRTSRAVPVEFASRAELRAFIAARAPTADAVLLSAGGS [r16_652_JUSTAS],< -1
10,SAGGSAGGSAGMTLEELQKEGYKVEVIRYPDSPHWYVEIEYPDPDGKKKERTIPVDDIKPSAGGSAGGSAGG [r17_311_TrROS],< -1
11,SAMPPGAIVKVKIISKERRIDNELGVEVVGYTEKEEDVKVLEVKEPGEKVELKLEIPNLPEGSELELGFSAG [r14_412_TrMRF],< -1
12,SAGGSAGGSPVDEIIEEIKKKGYKANVKSVSVSPNSKGELEIELEINIEKPEPKGTEENIKKKSAGGSAGGS [r12_120_JUSTAS],< -1
13,SAGGSAGGSAGGSGVKTRAGSFPDRDYTITEDPVVPGIYTVKFPPEVTVTLPKSEIPPLSAGGSAGGSAGGS [r10_556_JUSTAS],< -1
14,SAGGSAGGSAMWVRDIADELRKEGKPVKIEMRNPNGKEKEYTIKPGEPLPPGWDIEKIEYKSAGGSAGGSAG [r3_421_TrROS],< -1
15,SAGGMNMYLRVEQYRKKPNGEPEKRELSIPFPPNEPVEEIADELQKDNPYIKVEIYSPGTGKQQTITISAGG [r13_663_TrROS],< -1
16,SAGGSAGGSAGNKPIMIKAEFPGNGREVEFPIRSPEQAKEFAKRLANQPGFPIKDVDIYPSAGGSAGGSAGG [r11_951_TrROS],< -1
17,SAGGSAGGSNWTIKVNIVEKPNGKKYIPITMRPPNGNTREGPMPADEIKDRFGMPAEDIAKAISAGGSAGGS [r20_235_TrROS],< -1
18,SAGMMVLVRNKNGETVPLEDMTEEQLKNMDIEEVEILPPPEIKVEEEVKVDENGNLTVKKKIEIKIEFSAGG [r19_232_TrROS_Hall],< -1

# Reference: the supplement of paper PMC12764529
